We go through seven substances from patent US20120014911.

Data set [1] deals with T1, GST-IFNAR1 (wild type): bacterially expressed cytoplasmic domain of IFNAR1 fused with GST (UniProt P17181).
T1 sequence: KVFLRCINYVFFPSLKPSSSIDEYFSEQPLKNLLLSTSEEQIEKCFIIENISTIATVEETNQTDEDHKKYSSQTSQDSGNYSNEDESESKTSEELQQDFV

In data set [2] the target is T2, recombinant PKD2 used as substrate of Tyk2 and Src (UniProt Q9BZL6).
T2 sequence: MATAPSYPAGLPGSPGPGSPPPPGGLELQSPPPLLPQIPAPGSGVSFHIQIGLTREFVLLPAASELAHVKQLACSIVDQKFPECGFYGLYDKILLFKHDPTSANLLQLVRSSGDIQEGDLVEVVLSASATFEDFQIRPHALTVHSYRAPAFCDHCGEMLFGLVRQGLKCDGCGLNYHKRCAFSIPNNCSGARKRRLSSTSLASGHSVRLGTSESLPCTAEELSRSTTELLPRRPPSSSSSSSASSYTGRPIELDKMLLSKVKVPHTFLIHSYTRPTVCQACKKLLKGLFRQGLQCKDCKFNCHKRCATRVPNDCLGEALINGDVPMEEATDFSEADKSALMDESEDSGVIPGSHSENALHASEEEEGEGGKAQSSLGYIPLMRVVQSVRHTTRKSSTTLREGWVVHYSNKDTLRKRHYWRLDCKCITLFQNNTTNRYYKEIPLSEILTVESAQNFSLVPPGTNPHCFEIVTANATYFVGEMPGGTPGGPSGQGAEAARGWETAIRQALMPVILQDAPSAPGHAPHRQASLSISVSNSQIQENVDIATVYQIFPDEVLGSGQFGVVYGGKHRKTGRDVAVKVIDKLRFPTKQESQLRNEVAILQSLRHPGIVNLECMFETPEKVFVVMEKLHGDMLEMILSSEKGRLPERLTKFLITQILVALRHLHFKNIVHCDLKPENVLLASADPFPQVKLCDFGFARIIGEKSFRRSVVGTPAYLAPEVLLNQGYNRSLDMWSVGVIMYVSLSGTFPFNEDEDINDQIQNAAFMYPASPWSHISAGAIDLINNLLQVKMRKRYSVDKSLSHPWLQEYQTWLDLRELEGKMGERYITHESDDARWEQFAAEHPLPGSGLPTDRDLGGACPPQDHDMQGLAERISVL

Data set [3] deals with purified recombinant Nrf2-Neh2 domain (wild type).
The subject of data set [4] is purified recombinant Nrf2-Neh2 domain S40A.
The test system of data set [5] is purified recombinant Nrf2-Neh2 domain T80A.

On to “GST-tagged PKD2 kinase-dead K580N mutant”, for which the “in vitro phosphorylation of GST-IFNAR1 on Ser535 (immunoblot with anti-pS535)” value in data set [1] was “Ser535 phosphorylation on GST-IFNAR1 incubated with ATP and GST-PKD2 was not evident when a catalytically deficient (kinase-dead, KD) K580N mutant was used in the reaction”. As for “HA-tagged Leishmania major CK1 (L-CK1) immunopurified from 293T cells”, the “immunokinase assay: phosphorylation of GST-IFNAR1 on Ser535” value in data set [1] is “immunopurified human CK18, CK1E, and protozoan parasite L-CK1 were active against IFNAR1S535 in the immunokinase assay in vitro”.

On to “HA-tagged Tyk2 immunopurified from cells”, for which the “in vitro tyrosine phosphorylation of PKD2 (immunoblot with anti-phospho-Tyr antibody)” value in data set [2] is “A robust increase in Tyr phosphorylation of PKD2 was seen when HA-Tyk2 was purified from IFN-a-treated cells”. Regarding “Myc-tagged human CK1δ immunopurified from 293T cells”, the “immunokinase assay: phosphorylation of GST-IFNAR1 on Ser535” value in data set [1] is “immunopurified human CK18, CK1E, and protozoan parasite L-CK1 were active against IFNAR1S535 in the immunokinase assay in vitro”. “bacterially produced recombinant GST-CK1α”: the “in vitro phosphorylation of GST-IFNAR1 on Ser535 and Ser532 (immunoblot with phospho-specific antibodies)” value in data set [1] was “Incubation of recombinant CKla with wild type GST-IFNAR1 substrate and ATP in vitro resulted in phosphorylation of Ser535 but not of Ser532”. In the case of “recombinant Src (purchased from Cell Signaling)”, in data set [2], the “in vitro tyrosine phosphorylation of PKD2 (immunoblot with anti-phospho-Tyr antibody)” value was “tyrosine phosphorylation of PKD2 was easily detected when recombinant Sre protein was used as positive control”.

Regarding “recombinant bacterially produced constitutively active ΔN-PERK”, the “in vitro kinase assay” value in data set [1] was “activated PERK was not capable of phosphorylating IFNAR1 in vitro”. In addition, the “in vitro kinase assay, autoradiography” value was “Purified recombinant PERK phosphorylated wild type Nrf2-Neh2 and a serine 40 to alanine mutant; however, mutation of threonine 80 to alanine abrogated phosphorylation” in data set [3]; “Purified recombinant PERK phosphorylated wild type Nrf2-Neh2 and a serine 40 to alanine mutant; however, mutation of threonine 80 to alanine abrogated phosphorylation” in data set [4]; “mutation of threonine 80 to alanine abrogated phosphorylation” in data set [5].
